Data reported in patent US11155612 (CENTRO DE INVESTIGACI N CIENT FICA Y DE EDUCACI N SUPERIOR …, dated 2021).
Substitutions are numbered along the chain they refer to. Names and notes keep the numbering of the source. One block for each binder: values may come before it.

Molecular target: VEGF (added at 4 ng/ml in the HUVEC/NHDF angiogenesis assay)
Test: cell-based or functional assay

Sequence of VEGF (added at 4 ng/ml in the HUVEC/NHDF angiogenesis assay) (P15692 whole entry): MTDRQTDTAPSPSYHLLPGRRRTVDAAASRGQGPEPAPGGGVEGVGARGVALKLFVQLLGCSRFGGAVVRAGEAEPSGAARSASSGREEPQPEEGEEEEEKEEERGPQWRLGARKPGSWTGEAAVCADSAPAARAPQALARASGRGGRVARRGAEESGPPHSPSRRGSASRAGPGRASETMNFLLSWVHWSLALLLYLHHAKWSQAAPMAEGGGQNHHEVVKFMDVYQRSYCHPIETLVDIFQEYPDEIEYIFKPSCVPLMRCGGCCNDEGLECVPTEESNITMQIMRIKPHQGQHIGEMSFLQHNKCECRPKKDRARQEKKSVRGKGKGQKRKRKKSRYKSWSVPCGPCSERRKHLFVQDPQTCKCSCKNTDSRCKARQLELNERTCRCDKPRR

- IC50 angiogenesis: network branching: 18 µg/mL
- IC50 angiogenesis: tube length: 18 µg/mL
B1: vNAR V13 (parental sequence) (other)
chain: ASLDQTPRTATRETGESLSINCVLTDTSHILFGTKWLWNNPGSTDWESITIGGRYAESVNNQAKSFSLQIKDLTVEDSGTYYCKAQTIGRRKNLLPRPLVNGIAAMGYSSSDYDGAGTVLTVN

- IC50 angiogenesis: network branching: 33 µg/mL
- IC50 angiogenesis: tube length: 21 µg/mL
B2: vNAR R97A (clone M4) (other)
chain: B1 chain with R97A

- IC50 angiogenesis: network branching: 11 µg/mL
- IC50 angiogenesis: tube length: 9 µg/mL
B3: vNAR P98Y (clone M1), anti-VEGF vNAR of SEQ ID NO:1 (other)
chain: B1 chain with P98Y
